Results: IntAct's records for PubMed 24270572

B1: Endoribonuclease ZC3H12A (Homo sapiens), Q5D1E8 (parent)
chain: MSGPCGEKPVLEASPTMSLWEFEDSHSRQGTPRPGQELAAEEASALELQMKVDFFRKLGYSSTEIHSVLQKLGVQADTNTVLGELVKHGTATERERQTSPDPCPQLPLVPRGGGTPKAPNLEPPLPEEEKEGSDLRPVVIDGSNVAMSHGNKEVFSCRGILLAVNWFLERGHTDITVFVPSWRKEQPRPDVPITDQHILRELEKKKILVFTPSRRVGGKRVVCYDDRFIVKLAYESDGIVVSNDTYRDLQGERQEWKRFIEERLLMYSFVNDKFMPPDDPLGRHGPSLDNFLRKKPLTLEHRKQPCPYGRKCTYGIKCRFFHPERPSCPQRSVADELRANALLSPPRAPSKDKNGRRPSPSSQSSSLLTESEQCSLDGKKLGAQASPGSRQEGLTQTYAPSGRSLAPSGGSGSSFGPTDWLPQTLDSLPYVSQDCLDSGIGSLESQMSELWGVRGGGPGEPGPPRAPYTGYSPYGSELPATAAFSAFGRAMGAGHFSVPADYPPAPPAFPPREYWSEPYPLPPPTSVLQEPPVQSPGAGRSPWGRAGSLAKEQASVYTKLCGVFPPHLVEAVMGRFPQLLDPQQLAAEILSYKSQHPSE

Variants of: B1
Settings: with ubp10_human USP10, Q14694
ubp10_human USP10, Q14694, sequence (Q14694 whole entry): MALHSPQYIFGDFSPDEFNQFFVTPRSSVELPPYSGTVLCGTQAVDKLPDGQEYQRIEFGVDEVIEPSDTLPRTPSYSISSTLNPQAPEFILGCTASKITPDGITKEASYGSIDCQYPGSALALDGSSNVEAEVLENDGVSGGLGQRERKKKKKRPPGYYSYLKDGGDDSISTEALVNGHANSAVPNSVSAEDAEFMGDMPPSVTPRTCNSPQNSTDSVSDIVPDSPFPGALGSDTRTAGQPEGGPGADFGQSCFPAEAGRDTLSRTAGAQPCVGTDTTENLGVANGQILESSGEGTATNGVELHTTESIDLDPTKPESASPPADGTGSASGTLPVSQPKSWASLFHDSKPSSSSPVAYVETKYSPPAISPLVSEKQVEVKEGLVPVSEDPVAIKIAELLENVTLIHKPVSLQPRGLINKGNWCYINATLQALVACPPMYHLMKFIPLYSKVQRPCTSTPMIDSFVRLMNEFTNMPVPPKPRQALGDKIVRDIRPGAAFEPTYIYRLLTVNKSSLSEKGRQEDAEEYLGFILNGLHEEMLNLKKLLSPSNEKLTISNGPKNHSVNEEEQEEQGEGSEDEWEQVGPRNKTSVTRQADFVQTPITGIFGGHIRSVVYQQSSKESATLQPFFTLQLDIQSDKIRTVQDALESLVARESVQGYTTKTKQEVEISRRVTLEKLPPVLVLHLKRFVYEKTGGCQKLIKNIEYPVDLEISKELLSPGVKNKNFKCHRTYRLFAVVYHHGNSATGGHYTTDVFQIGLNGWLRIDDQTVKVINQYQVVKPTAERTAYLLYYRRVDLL

effect of a mutation on the interaction	Variant
disrupting interaction	D141N

Variants of: B1
Settings: with ubp10_human USP10, Q14694
Remark: another data set of the same source

effect of a mutation on the interaction	Variant
disrupting interaction	C306R
